Results published in article PMC2907741 (Biochemistry, 2009).
Where two headings read alike, the source gives them in different places. Bridge positions count the residues as written; N and C are the ends. Ends that are not written are not given here.

Columns and labels:
[1] = target: the molecule itself; assay: thioflavin T fluorescence aggregation assay
[2] = target: the molecule itself; assay: thioflavin T fluorescence aggregation assay; remark: listed apart in the source

B1: 8 kDa fragment of plasma gelsolin (173-242), D187N (domain or fragment, human)
chain: ATEVPVSWESFNNGNCFILDLGNNIHQWCGSNSNRYERLKATQVSKGIRDNERSGRARVHVSEEGTEPEA
modifications: disulfide 16-29
- binding result [1]: binds

B2: 5 kDa fragment of plasma gelsolin (173-225), D187N (domain or fragment, human)
chain: ATEVPVSWESFNNGNCFILDLGNNIHQWCGSNSNRYERLKATQVSKGIRDNER
modifications: disulfide 16-29
- binding result [2]: binds
